Data from article PMC3536657.

Experiments:
[1] = target: b12 chimeric IgG, germline heavy chain paired with the mature light chain (human); assay: BLI; antibody-capture kinetics: IgG on biosensors, 2-fold serial dilutions of Env; mean of curves with R^2 >= 0.95
[2] = target: b12 chimeric IgG, mature heavy chain paired with the germline light chain (human); assay: as above
mature IgG b12 (human) = assay: as above
[3] = target: HXB2 gp120 (HIV-1 clade B, isolate HXB2) (UniProt P04578)
[4] = target: QH0692 gp120 (HIV-1 (clade B, isolate QH0692))

Chain of mature IgG b12 (human) (heavy, as listed by the source, chain 1 of 2): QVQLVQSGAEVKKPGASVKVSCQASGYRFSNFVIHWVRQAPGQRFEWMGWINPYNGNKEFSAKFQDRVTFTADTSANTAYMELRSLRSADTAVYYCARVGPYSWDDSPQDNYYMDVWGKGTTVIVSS
Chain of mature IgG b12 (human) (light, as listed by the source, chain 2 of 2): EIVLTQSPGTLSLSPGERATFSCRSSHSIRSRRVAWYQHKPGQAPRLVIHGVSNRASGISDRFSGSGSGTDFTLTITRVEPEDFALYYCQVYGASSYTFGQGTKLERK
Chain of b12 chimeric IgG, mature heavy chain paired with the germline light chain (human) (light, as listed by the source, chain 2 of 2): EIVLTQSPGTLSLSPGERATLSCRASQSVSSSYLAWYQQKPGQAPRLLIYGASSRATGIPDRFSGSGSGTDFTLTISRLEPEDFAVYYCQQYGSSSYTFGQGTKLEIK
Chain of b12 chimeric IgG, germline heavy chain paired with the mature light chain (human) (heavy, as listed by the source, chain 1 of 2): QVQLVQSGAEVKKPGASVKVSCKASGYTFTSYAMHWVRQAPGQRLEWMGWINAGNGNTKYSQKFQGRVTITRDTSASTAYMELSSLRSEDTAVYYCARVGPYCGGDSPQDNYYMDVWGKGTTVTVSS

Substance QH0692 gp120 (natural protein) has a Ka [1] of 1.39e+07 M⁻¹, a Ka [2] of 7.56e+06 M⁻¹ and a Ka (mature IgG b12 (human)) of 2e+09 M⁻¹. It also gave a Kd (mature IgG b12 (human)) of 2 nM.
With mature IgG b12 (antibody) the neutralisation of HXB2 virions (luciferase reporter cells), IC50 [3] was 0.002 µg/mL and the neutralisation of QH0692 virions (luciferase reporter cells), IC50 [4] was 0.22 µg/mL.
